Data from PMC4282169.

Columns and labels:
purified protein [1] = substrate: O=[N+]([O-])c1ccc(O[C@@H]2O[C@H](CO)[C@@H](O)[C@H](O)[C@H]2O)cc1; experiment: purified protein; conditions: 37 °C, 50 mM buffer at or near pH optimum (6.0-7.0)
[2] = substrate: O=[N+]([O-])c1ccc(O[C@@H]2O[C@H](CO)[C@@H](O[C@@H]3O[C@H](CO)[C@@H](O[C@@H]4O[C@H](CO)[C@@H](O[C@@H]5O[C@H](CO)[C@@H](O)[C@H](O)[C@H]5O)[C@H](O)[C@H]4O)[C@H](O)[C@H]3O)[C@H](O)[C@H]2O)c(Cl)c1; experiment: 2-chloro-4-nitrophenolate release, A405, continuous; type: biochemical, Bacteroides ovatus; conditions: 37 °C, 50 mM buffer at or near pH optimum (6.0-7.0)
[3] = substrate: O=[N+]([O-])c1ccc(O[C@@H]2O[C@H](CO)[C@@H](O[C@@H]3O[C@H](CO[C@H]4OC[C@@H](O)[C@H](O)[C@H]4O)[C@@H](O[C@@H]4O[C@H](CO[C@H]5OC[C@@H](O)[C@H](O)[C@H]5O)[C@@H](O[C@@H]5O[C@H](CO[C@H]6OC[C@@H](O)[C@H](O)[C@H]6O)[C@@H](O)[C@H](O)[C@H]5O)[C@H](O)[C@H]4O)[C@H](O)[C@H]3O)[C@H](O)[C@H]2O)c(Cl)c1; experiment: as above; type: biochemical, Bacteroides ovatus; conditions: 37 °C, 50 mM buffer at or near pH optimum (6.0-7.0)
HPLC = substrate: OC[C@H]1O[C@@H](O[C@H]2[C@@H](OC[C@H]3O[C@@H](O[C@H]4[C@H](O)[C@@H](O)[C@H](O[C@H]5[C@H](O)[C@@H](O)C(O)O[C@@H]5CO)O[C@@H]4CO[C@H]4OC[C@@H](O)[C@H](O)[C@H]4O[C@@H]4O[C@H](CO)[C@H](O)[C@H](O)[C@H]4O)[C@H](O)[C@@H](O)[C@@H]3O[C@@H]3O[C@H](CO[C@H]4OC[C@@H](O)[C@H](O)[C@H]4O)[C@@H](O)[C@H](O)[C@H]3O)OC[C@@H](O)[C@@H]2O)[C@H](O)[C@@H](O)[C@H]1O; experiment: HPLC; type: biochemical, Bacteroides ovatus; conditions: 37 °C, 50 mM buffer at or near pH optimum (6.0-7.0)
purified protein [4] = substrate: O=[N+]([O-])c1ccc(O[C@H]2O[C@H](CO)[C@@H](O)[C@H](O)[C@H]2O)cc1; experiment: purified protein; conditions: 37 °C, 50 mM buffer at or near pH optimum (6.0-7.0)
[5] = substrate: O=[N+]([O-])c1ccc(O[C@H]2OC[C@@H](O)[C@H](O)[C@H]2O)cc1; experiment: 4-nitrophenolate release, A410; type: biochemical, Bacteroides ovatus; conditions: 37 °C, 50 mM buffer at or near pH optimum (6.0-7.0)
[6] = substrate: O=[N+]([O-])c1ccc(O[C@@H]2O[C@@H](CO)[C@H](O)[C@H]2O)cc1; experiment: 4-nitrophenolate release, A410; type: biochemical, Bacteroides ovatus; conditions: 37 °C, 50 mM buffer at or near pH optimum (6.0-7.0)
[7] = substrate: O=[N+]([O-])c1ccc(O[C@@H]2OC[C@@H](O)[C@H](O)[C@H]2O)cc1; experiment: 4-nitrophenolate release, A410; type: biochemical, Bacteroides ovatus; conditions: 37 °C, 50 mM buffer at or near pH optimum (6.0-7.0)
purified protein [8] = substrate: O=[N+]([O-])c1ccc(O[C@@H]2O[C@H](CO)[C@H](O)[C@H](O)[C@H]2O)cc1; experiment: purified protein; conditions: 37 °C, 50 mM buffer at or near pH optimum (6.0-7.0)
[9] = substrate: O=[N+]([O-])c1ccc(O[C@@H]2O[C@@H](CO)[C@H](O)[C@H]2O)cc1; experiment: continuous 4-nitrophenolate release; type: biochemical, Bacteroides ovatus; conditions: 37 °C, pH 7.0

B1: BoGH3B (Bacteroides ovatus ATCC 8483) (protein)
chain: QTASPVIPTDPAIETHIREWLQKMTLEQKIGQMCEITIDVVSDLETSRKKGFCLSEAMLDTVIGKYKVGSLLNVPLGVAQKKEKWAEAIKQIQEKSMKEIGIPCIYGVDQIHGTTYTLDGTMFPQGINMGATFNRELTRRGAKISAYETKAGCIPWTFAPVVDLGRDPRWARMWENYGEDCYVNAEMGVSAVKGFQGEDPNRIGEYNVAACMKHYMGYGVPVSGKDRTPSSISRSDMREKHFAPFLAAVRQGALSVMVNSGVDNGLPFHANRELLTEWLKEDLNWDGLIVTDWADINNLCTRDHIAATKKEAVKIVINAGIDMSMVPYEVSFCDYLKELVEEGEVSMERIDDAVARVLRLKYRLGLFDHPYWDIKKYDKFGSKEFAAVALQAAEESEVLLKNDGNILPIAKGKKILLTGPNANSMRCLNGGWSYSWQGHVADEYAQAYHTIYEALCEKYGKENIIYEPGVTYASYKNDNWWEENKPETEKPVAAAAQADIIITCIGENSYCETPGNLTDLTLSENQRNLVKALAATGKPIVLVLNQGRPRIINDIVPLAKAVVNIMLPSNYGGDALANLLAGDANFSGKMPFTYPRLINALATYDYKPCENMGQMGGNYNYDSVMDIQWPFGFGLSYTNYKYSNLKVNKPTFNADDELIFTVDVTNTGKVAGKESVLLFSKDLVASSTPDNIRLRNFEKVSLEPGETKTVTLKLKGSDLAFVGYDGKWRLEKGDFKIKCGDQWMDIVCDQTKVWNTPNKNTLHK
Purified protein [1]
  Km: 0.155 ± 0.039 mM
  kcat: 1.74 s⁻¹
  kcat/Km: 11200 M⁻¹ s⁻¹

B2: BoGH5A (Bacteroides ovatus ATCC 8483) (protein)
chain: SNSDEKGGSLEVAQEYRNLEFDARGSRQTIQIDGPAEWHISTSESWCKSSHTIGEGKQYVNITVEANDTQKERTATVTVSASGAPDIIINVKQSLYSVPAYDEYIAPDNTGMRDLTSMQLSALMKAGVNVGNTFEAVIVGNDGSLSGDETCWGNPTPNKVLFEGIKAAGFDVVRIPVAYSHQFEDAATYKIKSAWMDKVEAAVKAALDAGLYVIINIHWEGGWLNHPVDANKEALDERLEAMWKQIALRFRDYDDRLLFAGTNEVNNDDANGAQPTEENYRVQNGFNQVFVNTVRATGGRNHYRHLIVQAYNTDVAKAVAHFTMPLDIVQNRIFLECHYYDPYDFTIMPNDENFKSQWGAAFAGGDVSATGQEGDIEATLSSLNVFINNNVPVIIGEYGPTLRDQLTGEALENHLKSRNDYIEYVVKTCVKNKLVPLYWDAGYTEKLFDRTTGQPHNAASIAAIMKGLN
[2]
  Km: 3.59 ± 1.27 mM
  kcat: 0.12 ± 0.025 s⁻¹
  kcat/Km: 34 M⁻¹ s⁻¹
[3]
  Km: 0.036 ± 0.0027 mM
  kcat: 10.5 ± 0.14 s⁻¹
  kcat/Km: 292000 M⁻¹ s⁻¹

B3: BoGH31A (Bacteroides ovatus ATCC 8483) (protein)
chain: SNKVYEKTGDSVIVKVQHKETGGPRLVRLQVMGDKLIHVSATADSKFADPQSLIVVPQKKQTSFAVVQNGDTITVSTEEVKASVLASTGEVWFTDKNGELILQENKGGGKTFTPIEVEGTKGYTVCQVFESPEDEAFYGLGQHQADEFNYKGKNEELFQYNTKVSVPFVVSNKNYGILLDSYSFCRFGNPNDYSQLNRIFKLYDKTGQEGALTGTYVPKKGETLVRREDSIYFENLKTIENLPKKLPLMGAKVTYEGEIEPAQTGEFKFILYYAGYVKVYLNNEPVVPERWRTAWNPNSYKFAAHLEAGKRVPLKIEWQPDGGQSYCGLRALTPVNPEEQGKQSWWSEMTKQLDYYFMAGENMDDVISGYRSLTGKSPVMPKWAMGFWQSREKYNTQEEMLGALKGFRDRKIPLDNIVLDWNHWPENAWGSHEFDKARFPDPKAMVDSIHAMHARMMISVWPKFYVTTEHFKEFDENGWMYQQSVKDSLKDWVGPGYHYGFYDAYDPDARKLFWKQMYEHYYPLGIDAWWMDASEPNVRDCTDLEYRKALCGPTALGSSTEFFNAYALMNAEAIYDGQRGVDNNKRVFLLTRSGFAGLQRYSTATWSGDIGTRWEDMKAQISAGLNFAMSGIPYWTMDIGGFCVENRYVAGQKQWNATKTENADYKEWRELNTRWYQFGAFVPLYRAHGQYPFREIWEIAPEGHPAYQSVVYYTKLRYNMMPYIYSLAGMTWFDDYTIMRPLVMDFTADAEVNDIGDQFMFGPSFMVSPVYRYGDRSREIYFPQAEGWYDFYSGKFQAGGERKVIEAPYERIPLYVRAGAIIPFGDDIQYTDEKPAEHIRLYIYQGADGEFTLYEDEGVNYNYEQGMYAMIPMKYDEATKTLVIGERQGEFPGMLKERTFTVVTVNKEKAQPFDLNAKGVTVKYNGSEQTLKL
HPLC
  Km: 0.378 ± 0.075 mM
  kcat: 31 ± 1.9 s⁻¹
  kcat/Km: 82000 M⁻¹ s⁻¹
Purified protein [4]
  Km: 31.8 ± 5.1 mM
  kcat: 0.071 s⁻¹
  kcat/Km: 2.2 M⁻¹ s⁻¹
[5]
  Km: 7.7 ± 0.273 mM
  kcat: 1.6 ± 0.031 s⁻¹
  kcat/Km: 210 M⁻¹ s⁻¹

B4: BoGH43A (Bacteroides ovatus ATCC 8483) (protein)
chain: QGYSNPVIPGFHPDPSVCKAGDDYYLVNSSFQYFPGVPLFHSKDLVHWEQIGNCLTRPSQLDLTNANSGSGIFAPTIRYNDGVFYMITTNVSGKGNFLVHTTDPRSEWSEPVWLEQGGIDPSLYFEDGKCFMVSNPDGYINLCEIDPMTGKQLSSSKRIWNGTGGRYAEGPHIYKKDGWYYLLISEGGTELGHKVTIARSRYIDGPYQGNPANPILTHANESGQSSPIQGTGHADLVEGTDGSWWMVCLAYRIMPGTHHTLGRETYLAPVRWDKDAWPVVNSNGTISLKMDVPTLPQQEMKGRPERIDFKEGKLSPEWIHLQNPEAKNYIFTKDGKLRLIATPVTLSDWKSPTFVALRQEHFDMEASAPVVLQKAGVNDEAGISVFMEFHSHYDLFVRQDKDRKRSVGLRYKLGEITHYAKEVSLPTDGEVELVVKSDINYYYFGYKVNGIYHDLGKMNTRYLSTETAGGFTGVVLGLYITSASKDSKAYADFEYFKYKGKPGENK
[6]
  Km: 0.71 ± 0.03 mM
  kcat: 0.057 ± 0.001 s⁻¹
  kcat/Km: 81 M⁻¹ s⁻¹
[7]
  Km: 6.58 ± 0.21 mM
  kcat: 0.26 ± 0.005 s⁻¹
  kcat/Km: 39 M⁻¹ s⁻¹

B5: BoGH2A (Bacteroides ovatus ATCC 8483) (protein)
chain: LALGGCLMLLGACSSSSLVSPRERSDFNADWRFHLGDGLQAAQPGFADNDWRVLDLPHDWAIEGDFSQENPSGTGGGALPGGVGWYRKTFSVDKADAGKIFRIEFDGVYMNSEVFINGVSLGVRPYGYISFSYDLTPYLKWDEPNVLAVRVDNAEQPNSRWYSGCGIYRNVWLSKTGPIHVGGWGTYVTTSSVDEKQAVLNLATTLVNESDTNENVTVCSSLQDAEGREVAETRSSGEAEAGKEVVFTQQLTVKQPQLWDIDTPYLYTLVTKVMRNEECMDRYTTPVGIRTFSLDARKGFTLNGRQTKINGVCMHHDLGCLGAAVNTRAIERHLQILKEMGCNGIRCSHNPPAPELLDLCDRMGFIVMDEAFDMWRKKKTAHDYARYFNEWHERDLNDFILRDRNHPSVFMWSIGNEVLEQWSDAKADTLSLEEANLILNFGHSSEMLAKEGEESVNSLLTKKLVSFVKGLDPTRPVTAGCNEPNSGNHLFRSGVLDVIGYNYHNKDIPNVPANFPDKPFIITESNSALMTRGYYRMPSDRMFIWPKRWDKSFADSTFACSSYENCHVPWGNTHEESLKLVRDNDFISGQYVWTGFDYIGEPTPYGWPARSSYFGIVDLAGFPKDVYYLYQSEWTDKQVLHLFPHWNWTPGQEIDMWCYYNQADEVELFVNGKSQGVKRKDLDNLHVAWRVKFEPGTVKVIARESGKVVAEKEICTAGKPAEIRLTPDRSILTADGKDLCFVTVEVLDEKGNLCPDADNLVNFTVQGNGFIAGVDNGNPVSMERFKDEKRKAFYGKCLVVIQNDGKPGKAKLTATSEGLRQAVLKISAEEL
Purified protein [8]
  Km: 0.087 ± 0.0074 mM
  kcat: 4 s⁻¹
  kcat/Km: 46000 M⁻¹ s⁻¹

B6: BoGH43B (Bacteroides ovatus ATCC 8483) (protein)
chain: QKTFRNPIITGMNPDPSICRVGDDFYLVTSTFEYFPGLPVYHSKDLVHWKLIGHALSRPENNPLMGCNASTGGQYAPTLRYHDGTFYVIGTNYGGKGSQGVFYVTAKNPAGPWSDPVWVGNWYVDPSIEFIDGKMYFLSPDNQGSFLLGVMDPETGTFVEALRKVASGLGGSSPEGPHFYKIGDYYYIMSAEGGTGYEHREVIQRSKSPWGPYEPSPVNPVLSNMNCPDHPFQAIGHADLVQLKDGSWWAVCLGIRPVNGKYQHLGRETFLAPVTWDADGWPKVGKDGVVQETYLFPNLPSHVWMEQPVRDDFDQETLGLDWTFIRNPAHSFWSLTEKPGSLRLKGTAINFTTNDSPSFIGRRQAAFNLTASAKVNFIPKVENEEAGLVVRADDKNHYDLLITERNGQRVAMIRKTLKDKVVDTTCKELPATGEVILSITATETTYTFEIKAAHVSAILGTASTRDVSNEVVGGFTGVFIGMYASGNGQANTNPADFDWFDFRCLD
[9]
  Km: 6.6 ± 2.3 mM
  kcat: 0.0005 ± 8.1e-05 s⁻¹
  kcat/Km: 0.076 M⁻¹ s⁻¹
